# Source: paper PMC6423718
# Target: bZIP domain of chicken CREB3 (chCREB3), Residues 206-280, His-tagged (chicken)
# Assay: crystal structure; DNA-free form; sitting-drop vapor diffusion at 4°C, 43% v/v MPD, 100 mM tri-sodium citrate pH 5.6, 10 mM magnesium chloride; molecular replacement; 3.95 Å
substance,measurement,value
"bZIP domain of chicken CREB3 (chCREB3), Residues 206-280, His-tagged (domain or fragment)",stoichiometry N,2
